Data taken from US20070065890A1, “Method for promoting formation of facultative heterochromatin” (priority 2005, published 2007).

Biological target: endogenous histone H1
Assay: cell-based or functional assay

derepression of the Gal4 pTK-Luc reporter (compare G4-SirT1 with G4-ΔN-SirT1): 20%
Substance: deletion mutant G4-ΔNSirT1 (Δ(1-268)) (from UniProt P04386 1-147)
